Measurements: article PMC5814829

T1: ScPif1p R326C (Saccharomyces cerevisiae, UniProt P07271 237-780, R326C)
T1 sequence: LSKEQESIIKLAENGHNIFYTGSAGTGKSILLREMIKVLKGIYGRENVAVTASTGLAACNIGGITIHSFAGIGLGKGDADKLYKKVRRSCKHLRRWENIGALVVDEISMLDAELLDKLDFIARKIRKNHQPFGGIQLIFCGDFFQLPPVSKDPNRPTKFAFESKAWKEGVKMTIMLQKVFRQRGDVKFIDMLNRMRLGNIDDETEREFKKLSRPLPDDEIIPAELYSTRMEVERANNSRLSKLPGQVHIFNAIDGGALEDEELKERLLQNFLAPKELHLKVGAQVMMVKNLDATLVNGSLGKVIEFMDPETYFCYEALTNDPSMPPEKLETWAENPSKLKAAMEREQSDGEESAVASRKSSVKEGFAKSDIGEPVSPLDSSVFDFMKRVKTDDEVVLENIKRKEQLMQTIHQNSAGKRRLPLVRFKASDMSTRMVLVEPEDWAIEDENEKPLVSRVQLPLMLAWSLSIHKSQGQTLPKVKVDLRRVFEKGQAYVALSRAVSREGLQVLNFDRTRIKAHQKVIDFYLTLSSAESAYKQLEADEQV

T2: ScPif1p R594A/K595A (Saccharomyces cerevisiae, UniProt P07271 237-780, R594A;K595A)
T2 sequence: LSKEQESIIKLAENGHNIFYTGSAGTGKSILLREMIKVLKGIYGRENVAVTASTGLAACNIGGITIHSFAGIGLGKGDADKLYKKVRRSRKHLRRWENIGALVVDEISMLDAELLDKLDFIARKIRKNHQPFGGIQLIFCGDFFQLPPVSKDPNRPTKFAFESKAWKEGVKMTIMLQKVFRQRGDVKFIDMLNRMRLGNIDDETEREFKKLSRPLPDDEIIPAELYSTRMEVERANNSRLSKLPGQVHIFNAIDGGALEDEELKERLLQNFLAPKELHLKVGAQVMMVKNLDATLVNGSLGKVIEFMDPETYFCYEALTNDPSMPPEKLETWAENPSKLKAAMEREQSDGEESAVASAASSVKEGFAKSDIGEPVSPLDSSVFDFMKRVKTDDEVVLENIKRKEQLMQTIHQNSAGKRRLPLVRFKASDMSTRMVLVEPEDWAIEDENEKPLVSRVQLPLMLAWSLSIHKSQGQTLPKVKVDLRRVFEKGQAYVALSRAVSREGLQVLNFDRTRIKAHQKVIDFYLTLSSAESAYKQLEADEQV

T3: ScPif1p K363A (Saccharomyces cerevisiae, UniProt P07271 237-780, K363A)
T3 sequence: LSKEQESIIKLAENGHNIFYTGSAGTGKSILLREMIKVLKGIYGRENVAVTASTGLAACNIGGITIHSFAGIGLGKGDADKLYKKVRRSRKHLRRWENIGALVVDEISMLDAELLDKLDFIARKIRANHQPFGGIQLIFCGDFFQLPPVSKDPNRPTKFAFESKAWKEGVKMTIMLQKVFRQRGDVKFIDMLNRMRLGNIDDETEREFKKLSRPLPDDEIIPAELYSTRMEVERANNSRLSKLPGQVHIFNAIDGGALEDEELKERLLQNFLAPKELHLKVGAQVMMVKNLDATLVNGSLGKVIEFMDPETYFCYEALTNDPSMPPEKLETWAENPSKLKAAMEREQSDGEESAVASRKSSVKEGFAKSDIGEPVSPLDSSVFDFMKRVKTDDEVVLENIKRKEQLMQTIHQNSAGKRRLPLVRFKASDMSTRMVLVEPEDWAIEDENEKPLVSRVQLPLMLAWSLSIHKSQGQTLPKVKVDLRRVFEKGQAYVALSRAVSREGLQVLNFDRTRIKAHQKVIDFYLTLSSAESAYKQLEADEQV

T4: ScPif1p R324N (Saccharomyces cerevisiae, UniProt P07271 237-780, R324N)
T4 sequence: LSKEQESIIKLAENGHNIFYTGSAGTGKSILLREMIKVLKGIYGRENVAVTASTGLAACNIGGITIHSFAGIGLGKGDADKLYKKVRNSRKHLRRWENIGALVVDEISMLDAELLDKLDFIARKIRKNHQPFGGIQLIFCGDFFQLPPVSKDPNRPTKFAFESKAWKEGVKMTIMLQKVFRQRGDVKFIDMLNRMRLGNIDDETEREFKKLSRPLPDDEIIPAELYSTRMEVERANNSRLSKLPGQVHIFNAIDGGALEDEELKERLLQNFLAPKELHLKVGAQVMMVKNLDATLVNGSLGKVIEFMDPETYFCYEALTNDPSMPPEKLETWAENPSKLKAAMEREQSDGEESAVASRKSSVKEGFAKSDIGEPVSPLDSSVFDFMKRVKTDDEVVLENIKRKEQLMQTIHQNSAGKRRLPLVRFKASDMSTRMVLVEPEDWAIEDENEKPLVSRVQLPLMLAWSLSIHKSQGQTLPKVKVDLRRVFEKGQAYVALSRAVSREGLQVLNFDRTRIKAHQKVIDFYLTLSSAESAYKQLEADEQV


Key:
Assay in all cases: fluorescence anisotropy
ScPif1p R326C = target: T1, ScPif1p R326C
ScPif1p R594A/K595A = target: T2, ScPif1p R594A/K595A
ScPif1p K363A = target: T3, ScPif1p K363A
ScPif1p R324N = target: T4, ScPif1p R324N

| Binder | Kd (ScPif1p R326C) [nM] | Kd (ScPif1p R594A/K595A) [nM] | Kd (ScPif1p K363A) [nM] | Kd (ScPif1p R324N) [nM] |
| --- | --- | --- | --- | --- |
| GTGTGTGTGGTG (ssDNA) [GR12] | 12.4 ± 2.1 | 10.5 ± 3.5 | 14.4 ± 1.3 | 11.4 ± 4.3 |
| AGGGTGGGTGGGTGGGT (structured_DNA) [F-G417] | 105 ± 8.4 | 72.9 ± 4.9 | 43.9 ± 2.2 | 87.9 ± 7.1 |
| dsDNA16bp (dsDNA) DNA 1: CTCTGCTCGACGGATT DNA 2: AATCCGTCGAGCAGAG | 78.3 ± 9.6 | 78.9 ± 9.3 | 72.3 ± 8.3 | 57.9 ± 1.1 |
